Data published in article PMC6179904 (Developmental Cell, 2018).
Where no end group is shown, it is not given here. The star is where a group is joined. Fluorescin = fluorescein label at the C-terminus, before the amide; Myristoyl = CCCCCCCCCCCCCC(=O)*

Target: full-length UNC119A (UniProt Q13432 1-240)
Experiment: fluorescence polarisation

Binder	Kd
Myristoyl-GSNKSKPKDASQ (also: fluorescein label, position not given here) [c-SRC (Myr-GSNKSKPKDASQ) fluorescein-labeled myristoylated peptide]	125 ± 69 nM
Myristoyl-GNAAGSAEQPAG-{Fluorescin-NH2} [fluorescein-labeled myristoylated FMNL1 peptide (Myr-GNAAGSAEQPAG-Fluorescin-amide)]	10.1 ± 3.5 nM
Myristoyl-GNLESAEGVPGE-{Fluorescin-NH2} [fluorescein-labeled myristoylated FMNL3 peptide (Myr-GNLESAEGVPGE-Fluorescin-amide)]	856 ± 156 nM
